Results taken from patent US20210260212A1 (MAGENTA THERAPEUTICS, published 2021).

Biological target: T1, human CD2 on the surface of cells (MOLT-4 human T lymphoblast cells); primary human T-cells; primary human NK … (human, UniProt P06729 25-351)
T1 sequence: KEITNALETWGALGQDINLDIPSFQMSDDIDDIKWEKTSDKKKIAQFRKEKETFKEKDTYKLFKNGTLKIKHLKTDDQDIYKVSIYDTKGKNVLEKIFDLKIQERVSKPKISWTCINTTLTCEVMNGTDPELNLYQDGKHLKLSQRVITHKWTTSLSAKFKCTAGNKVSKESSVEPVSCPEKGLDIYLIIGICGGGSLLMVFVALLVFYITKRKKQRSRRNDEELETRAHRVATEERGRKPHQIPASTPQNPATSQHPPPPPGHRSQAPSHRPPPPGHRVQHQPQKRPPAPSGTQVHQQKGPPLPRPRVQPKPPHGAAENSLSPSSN
Test: cell-based or functional assay

B1: anti-CD2-amanitin ADC: RPA 2.10 conjugated to amanitin with a cleavable linker, interchain, average drug-to-antibody ratio of 6 (other)
heavy: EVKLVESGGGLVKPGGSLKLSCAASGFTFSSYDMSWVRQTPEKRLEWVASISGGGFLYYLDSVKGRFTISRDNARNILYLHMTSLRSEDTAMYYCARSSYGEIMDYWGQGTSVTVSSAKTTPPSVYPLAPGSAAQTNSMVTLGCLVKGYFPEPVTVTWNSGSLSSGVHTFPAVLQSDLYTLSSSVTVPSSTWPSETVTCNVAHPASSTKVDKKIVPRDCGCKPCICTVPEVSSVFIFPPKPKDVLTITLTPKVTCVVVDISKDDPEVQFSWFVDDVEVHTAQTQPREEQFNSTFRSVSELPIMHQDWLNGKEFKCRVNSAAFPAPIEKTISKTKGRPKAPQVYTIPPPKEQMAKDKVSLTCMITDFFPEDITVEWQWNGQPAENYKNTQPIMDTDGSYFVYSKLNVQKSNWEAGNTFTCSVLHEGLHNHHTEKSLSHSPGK
light: DILLTQSPAILSVSPGERVSFSCRASQRIGTSIHWYQQRTTGSPRLLIKYASESISGIPSRFSGSGSGTDFTLSINSVESEDVADYYCQQSHGWPFTFGGGTKLEIERADAAPTVSIFPPSSEQLTSGGASVVCFLNNFYPKDINVKWKIDGSERQNGVLNSWTDQDSKDSTYSMSSTLTLTKDEYERHNSYTCEATHKTSTSPIVKSFNRNEC
For B1, which “viability of primary human NK cells after 4 days (CellTiter-Glo), in vitro NK-cell killing assay, IC50” value is on record?
The value was 5.2 pM.
